Test in all cases: cell-based or functional assay
The target in test [1] is SARS-CoV-2 S蛋白 (野生型假病毒) (SARS-CoV-2, UniProt P0DTC2 14-1273).
The target of test [2] is SARS-CoV-2活病毒nCoV-SH01株的S蛋白 (SARS-CoV-2, UniProt P0DTC2 14-1273).
For test [3], the target named is SARS-CoV-2 S蛋白 (野生型假病毒) (SARS-CoV-2, UniProt P0DTC2 14-1273). This is another data set of the same source.

B1: 单抗8D3 (antibody, V domains shown)
VH: EVQLQQSGPELVKPGASVKISCKTSGYTFTEYTMYWVKQSHGKSLEWIGGINPNIGDTSYNQNFKGKATLTVDRSSSTAYMELRSLTSEDSAVYYCARDGYPYYYALDHWGQGTSVTVSS
VL: DIVMTQSQKFMSTSVGDRVSVTCKASQNVGTNVAWYQQKPGQSPKALIYSTSYRYSGVPDRFTGSGSGTDFTLTISNVQSEDLAEYFCQQYNSYPYTFGGGTKLEIKR
Consider B1, for which, in the test with SARS-CoV-2 S蛋白 (野生型假病毒) [1], the “假病毒中和试验 半数抑制浓度(IC50)” value was 0.007 µg/mL. Moreover, the “活病毒中和 IC50” value in test [2] was found to be 0.071 µg/mL.

B2: 单抗2G3 (antibody)
heavy: QVQLQQPGAELVKPGASVKMSCKASGYTFTTYTIHWLRQTPGQGLEWIGAIYPGIGDTSYNQSFKGKATLTADKSSSTAYMQLSSLTSEDSAVYYCARDGNYAPFTYWGQGTLVTVSAAKTTPPSVYPLAPGSAAQTNSMVTLGCLVKGYFPEPVTVTWNSGSLSSGVHTFPAVLQSDLYTLSSSVTVPSSTWPSETVTCNVAHPASSTKVDKKIVPRDCGCKPCICTVPEVSSVFIFPPKPKDVLTITLTPKVTCVVVDISKDDPEVQFSWFVDDVEVHTAQTQPREEQFNSTFRSVSELPIMHQDWLNGKEFKCRVNSAAFPAPIEKTISKTKGRPKAPQVYTIPPPKEQMAKDKVSLTCMITDFFPEDITVEWQWNGQPAENYKNTQPIMDTDGSYFVYSKLNVQKSNWEAGNTFTCSVLHEGLHNHHTEKSLSHSPGK
light: DIVMSQSPSSLAVSVGEKVTMSCKSSQSLLYSNNQKNYLAWYQQKPGQSPKLLIYWTSTRESGVPDRFTGSGSGTDFTLTINSVKAEDLAVYYCQQYYRYPLTVGAGTKLELKRADAAPTVSIFPPSSEQLTSGGASVVCFLNNFYPKDINVKWKIDGSERQNGVLNSWTDQDSKDSTYSMSSTLTLTKDEYERHNSYTCEATHKTSTSPIVKSFNRNEC
Regarding B2, the “假病毒中和试验 半数抑制浓度(IC50)” value with SARS-CoV-2 S蛋白 (野生型假病毒) [1] was 0.007 µg/mL. In addition, the “活病毒中和 IC50” value in test [2] stood at 0.032 µg/mL.

B3: 单抗3A2 (antibody, V domains shown)
VH: QVTLKESGPGILQPSQTLSLTCSFSGFSLSTSGMGVSWIRQPSGKGLEWLAHIYWDDDKRYNPSLKSRLTISKDTSSSQVFLKITSVDTVDTATYYCARRGPLITTDGTFDVWGAGTTVTVSS
VL: DIVMTQSRKFMSTSVGDRVSITCKASQDVGTSVAWYQQKPGQSPKLLIYWASTRHTGVPDRFTGSGSGTDFTLTINSVQSEDLADYFCQQYSSYPYTFGGGTKLEMK
Regarding B3, the “假病毒中和试验 半数抑制浓度(IC50)” value with SARS-CoV-2 S蛋白 (野生型假病毒) [3] came to 0.049 µg/mL.
